B1: scFv1: tilapia-derived single-chain antibody fragment with high affinity for TiLV, from phage library (protein)
scFv: MSHRLTCAYSGFSSDIHAVWVRQAAGKGLEWIAYISDSSAYIYYSQSVRGRFTISRDNSRKQVYLQMNSLTTEDSAVYYCTREGSGFAFDYWGKGTGGGGSGGGGSGGGGSVTISATGSSNIGADLSWYLQKTGETPKLLIYKASTRSSGTPPRFSGSTSGSQYTLTISGVQAEDAGDYYCLGDHGGGALTFGGGTK
modifications: left off: 6×His, end not stated, kept | thioredoxin (from the vector pET32a), end not stated, state not stated

Legend:
scFv1 = test: Western blot, binding of S3 epitope peptide and mutants to GST-scFv1; set-up: species or system Nile tilapia (Oreochromis niloticus); details: PVDF membrane with GST-scFv1 incubated with S3 proteins 37°C 2 h; 6×His tag antibody
Description: The PET-N-GST-scFv1 plasmid was constructed using seamless cloning technology (Vazyme), and the protein was obtained through a prokaryotic expression system. The scFv1 protein was purified using GST resin (Beyotime) and stored after lyophilization. Similarly, S3-WT, S3-MuT-^Y386^A, S3-MuT-^R393^A, S3-MuT-^L398^A, and S3-MuT were expressed in prokaryotes using the pET32a plasmid. In the Western blot experiment, after blocking, the PVDF membrane containing GST-scFv1 blots was incubated with each of the five S3 proteins at 37°C for 2 h. Subsequently, the anti-6×His tag mouse mAb was used as the primary antibody, and HRP-conjugated goat anti-mouse IgG was used as the secondary antibody. The ECL color development steps were performed as described above.

TiLV-positive antibody = test: Depletion of TiLV-positive antibodies by epitope peptides (ELISA); type: binding, tilapia; details: TiLV-positive antibody diluted 800-fold, 10 depletion cycles
Description: The epitope peptide to be detected was coated on the ELISA plate at 37°C for 2 h. After washing with PBST, it was blocked with 2% skim milk powder for 2 h to reduce non-specific binding. The TiLV-positive antibody was diluted 800-fold and added to the wells at 100 µL per well. After incubation at room temperature for 20 min, the liquid was aspirated. The ELISA plate was briefly washed, and then, the serum was added again. This process was repeated 10 times, and then, the serum was collected. An ELISA was performed on the collected serum to detect the level of tilapia IgM. Blank and non-depleted negative controls were set up in the experiment. The depletion rate was calculated as follows: Depletion rate = (OD450 of non-depleted sample − OD450 of detected sample) / OD450 of non-depleted sample × 100%.

tilapia IgM = test: Serum antibody levels of tilapia after immunization with epitope peptides (ELISA); type: in vivo, Nile tilapia (Oreochromis niloticus); details: 20 µg peptide i.m. with Freund's adjuvant, 7-28 days
Description: Epitope vaccines usually need to be modified with Freund’s adjuvant (Beyotime) before immunization. Briefly, for a single immunization, the epitope peptide is mixed with an equal dose of complete Freund’s adjuvant and then administered to tilapia. For booster immunization, an equal dose of incomplete Freund’s adjuvant is fused with the epitope peptide before vaccination. For the S1, S3, and S10 epitope vaccine immunization programs, healthy Oreochromis niloticus were divided into six groups (70 fish per group) and vaccinated with 20 µg of peptide vaccine by intramuscular injection. During the 1–4 week immunization period, we collected four fish serum samples weekly for immunological analysis.
In the immunization experiments based on the P30-designed vaccine, healthy Nile tilapia were divided into four groups (70 fish per group) and injected intramuscularly with 20 µg of peptide vaccine to complete the primary immunization. After 14 days, the same dose of vaccine was administered again to complete the booster immunization. Serum and tissue samples were collected from 4 fishes in each group weekly after the primary immunization, for a total of 6 weeks. Furthermore, a PBS control was incorporated into both immunization experiments, and the immunization process was conducted in accordance with the aforementioned methodology.
Serum antibody levels after immunization were determined by indirect ELISA. Specifically, serum samples were diluted appropriately, coated to enzyme-labeled plates, and incubated overnight at 4°C. After being washed three times with PBST buffer, each well was incubated with mouse anti-tilapia IgM mAb (1:5,000) at 37°C for 1 h. After washing, each well was incubated with HRP-conjugated goat anti-mouse IgG (1:5,500) for an additional hour. Color development was carried out as described above.

TiLV [1] = test: Indirect ELISA, affinity of scFv for TiLV; type: binding, tilapia lake virus (TiLV)
Description: The scFv affinity assay was performed by indirect ELISA. The virus (4 × 10^3 copies/μL) was incubated overnight at 4°C after being coated in the wells. After blocking with 5% skim milk, 100 µL of scFv1 and scFv3 proteins at the same concentrations (0.01–100 μg/mL) were added and incubated. Meanwhile, BSA proteins with the same concentration gradient were used as controls. The primary and secondary antibodies were 6×His tag mouse mAb and HRP-conjugated goat anti-mouse IgG, respectively, following the previous protocol. The color development and readings were performed as described above. The scFvs obtained from both the prokaryotic and eukaryotic expression systems were verified for their affinity to TiLV. Meanwhile, the BSA protein was used as a negative control.

TiLV [2] = test: In vivo protection study of scFv1 against TiLV infection in tilapia; set-up: species or system Nile tilapia (Oreochromis niloticus); details: scFv1 10 μg/g i.p. 12 h after TiLV
Description: Healthy Nile tilapia (Oreochromis niloticus) with a body weight of approximately 3.2±0.6 g were selected. After being temporarily cultured in a circulating water aquaculture system, they were randomly divided into a neutralization experimental group, a virus control group, and a BSA control group, with 30 fish in each group. In the experimental group, 50 μL of TiLV virus suspension (8×10^3 copies/μL) was injected intraperitoneally. Twelve hours later, a solution of scFv1 diluted in PBS at a dose of 10 μg/g was injected intraperitoneally. In the BSA control group, after injecting the same dose of TiLV, BSA solution of the same concentration was used instead of the scFv1. In the virus control group, only virus was injected. Meanwhile, a blank control was set up. After the injection, the mortality of tilapia was observed and recorded continuously for 10 days, and the cumulative mortality rate was calculated.

TiLV [3] = test: Cellular fluorescence analysis of binding between scFv1 and TiLV in CIK cells; type: cell-based; details: GST-scFv1 incubated 24 h with TiLV-infected CIK cells
Description: After being cultured for 48 h, CIK cells grew into a monolayer and were then continuously incubated with TiLV virus at 28°C for 72 h. Subsequently, the culture medium was replaced, and the cells were incubated with GST-scFv1 protein for 24 h to ensure binding to TiLV particles. The cells were fixed with 4% paraformaldehyde at room temperature for 10 min and then incubated with immunostaining permeabilization buffer with Triton X-100 for 10 min. Subsequently, the GST mouse mAb (1:500, Beyotime) was used as the primary antibody and incubated with CIK cells at 4°C overnight, and FITC-labeled goat anti-mouse IgG (1:500, Beyotime) was used as the secondary antibody. After DAPI staining, the cells were observed under a fluorescence microscope. Cells that were not incubated with GST-scFv1 protein served as the control.

Molecule | binding to GST-scFv1 by Western blot (scFv1) | TiLV-positive antibody depletion rate (TiLV-positive antibody) [%] | immunogenicity (serum antibody titer) after single immunization (tilapia IgM) | EC50 of the scFv expressed in CHO cells that binds to TiLV (TiLV [1]; indirect ELISA, scFv from CHO expression system) [µg/mL] | EC50 for the binding of scFv to TiLV (TiLV [1]; indirect ELISA, scFv from prokaryotic expression, coated virus 4 × 10^3 copies/μL, scFv 0.01–100 μg/mL) [µg/mL] | EC50 of scFv1 fold lower than that of scFv3 (TiLV [1]; prokaryotic expression, binding to TiLV) [fold] | increase of the survival rate of TiLV-infected tilapia (TiLV [2]) [%] | binding to TiLV on infected CIK cells (green fluorescence) (TiLV [3])
GYQLASEIRGTIPLSS [S3WT] | able to bind | ~70 | highest immunogenicity |  |  |  |  | 
B1 |  |  |  | 2.098 | 33.06 | 3.22 | ~30 | had bound to TiLV

Source: paper PMC12724136, “Design of antibody structure-guided epitope vaccines in silico to induce potent immune responses against emerging viruses” (Journal of Virology, 2025)
